What follows are binders tested against T1, HLA-A*02:01 (human) (assay: UV peptide exchange ELISA).
T1 construct: monomers captured on streptavidin plates; also called MHC class I
In short: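 Read-out is an ELISA on the UV-exchange reaction: monomers, diluted 100-fold, are captured on streptavidin and the β2m light chain is detected with 2 μg/ml HRP antibody and TMB at 450 nm.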
Binder SLAALVVHV has a peptide exchange yield of 50 to 75%. LLQNEQFEL gave a peptide exchange yield of 50 to 75%. For GLINTGVLSV, the peptide exchange yield was 20 to 50%. YLLPESVDL was tested, and the peptide exchange yield was 50 to 75%. In the case of SLLQDLVSV, the peptide exchange yield is reported as 50 to 75%. With VIWKALIHL the peptide exchange yield was 50 to 75%. Binder ILLDVKTRL has a peptide exchange yield of at least 75%. For HIYDKVMTV, the peptide exchange yield was 50 to 75%. KVDTVWVNV gave a peptide exchange yield of 50 to 75%. Work on SLIPNLRNV yielded a peptide exchange yield of 50 to 75%. LLDSKVPSV gave a peptide exchange yield of 50 to 75%. With YLQDVVEQA the peptide exchange yield was 50 to 75%. Binder RLLDMGETDLML has a peptide exchange yield of 50 to 75%. With QLALKVEGV the peptide exchange yield was 50 to 75%. TMLLNIPLV showed a peptide exchange yield of 20 to 50%. With SLFKHDPAAWEA the peptide exchange yield was at least 75%. With TLYGLSVLL the peptide exchange yield was 50 to 75%. ALLSMTFPL gave a peptide exchange yield of at least 75%. For HLLSELEAAPYL, the peptide exchange yield was at least 75%. For TLTKVLVAL, the peptide exchange yield was 50 to 75%. VLFDDELLMV gave a peptide exchange yield of 50 to 75%. With FLPDANSSV the peptide exchange yield was 20 to 50%. Binder ILLERLWYV has a peptide exchange yield of 50 to 75%. Work on IMEGTLTRV yielded a peptide exchange yield of 20 to 50%. ALNDQVFEI was tested, and the peptide exchange yield was 50 to 75%. In the case of FLLQQHLISA, the peptide exchange yield is reported as 20 to 50%. In the case of ALGYFVPYV, the peptide exchange yield is reported as 50 to 75%. GLAPFTEGISFV showed a peptide exchange yield of 50 to 75%. Binder AMFESSQNVLL has a peptide exchange yield of 20 to 50%. Binder TLMTSLPAL has a peptide exchange yield of 50 to 75%. Binder IMEENPGIFAV has a peptide exchange yield of 50 to 75%. SLLELLHIYV gave a peptide exchange yield of 50 to 75%. FLPDEPYIKV was tested, and the peptide exchange yield was 50 to 75%. In the case of GLFDGVPTTA, the peptide exchange yield is reported as 50 to 75%. For SMHDLVLQV, the peptide exchange yield was 50 to 75%. For YLISELEAA, the peptide exchange yield was 50 to 75%. Work on FLVDTPLARA yielded a peptide exchange yield of at least 75%. KLLGKLPEL gave a peptide exchange yield of 50 to 75%. With GLFPEHLIDV the peptide exchange yield was 50 to 75%. In the case of SLLEVNEESTV, the peptide exchange yield is reported as 50 to 75%. FIMPATVADATAV was tested, and the peptide exchange yield was 50 to 75%. SLSDGLEEV gave a peptide exchange yield of 20 to 50%. Binder YLQDQHLLLTV has a peptide exchange yield of 50 to 75%. With ALDEYTSEL the peptide exchange yield was at least 75%. For YLFEMDSSL, the peptide exchange yield was 20 to 50%. SIQQSIERLLV was tested, and the peptide exchange yield was 20 to 50%. For ALYELEGTTV, the peptide exchange yield was 50 to 75%. In the case of SQIALNEKLVNL, the peptide exchange yield is reported as 50 to 75%. Binder ILADIVISA has a peptide exchange yield of 50 to 75%. SQYSGQLHEV showed a peptide exchange yield of 50 to 75%. Binder IISDLTIAL has a peptide exchange yield of 50 to 75%. Binder FLYDEIEAEV has a peptide exchange yield of 50 to 75%. For LILEGVDTV, the peptide exchange yield was 20 to 50%. ALIAEGIALV was tested, and the peptide exchange yield was 50 to 75%. VLLDDIFAQL was tested, and the peptide exchange yield was 50 to 75%. FLLDSSASV was tested, and the peptide exchange yield was 20 to 50%. ALLDVTHSELTV was tested, and the peptide exchange yield was 50 to 75%. In the case of SLQNHNHQL, the peptide exchange yield is reported as 50 to 75%. With GLWEIENNPTVKA the peptide exchange yield was at least 75%. With FLVTLNNVEV the peptide exchange yield was at least 75%. FLPEALDFV gave a peptide exchange yield of 50 to 75%. FLQAHLHTA was tested, and the peptide exchange yield was at least 75%. RLYTGMHTV gave a peptide exchange yield of 50 to 75%. ALPVSLPQI showed a peptide exchange yield of 50 to 75%. YVIDQGETDVYV gave a peptide exchange yield of 50 to 75%. GLFEDVTQPGILL was tested, and the peptide exchange yield was at least 75%. For ALLELAEEL, the peptide exchange yield was 50 to 75%. Binder SLEPQIQPV has a peptide exchange yield of 20 to 50%. KVLDVSDLESV was tested, and the peptide exchange yield was 20 to 50%. Binder ILLTAIVQV has a peptide exchange yield of 50 to 75%. In the case of SLLEDKGLAEV, the peptide exchange yield is reported as 20 to 50%. In the case of KMFEFVEPLL, the peptide exchange yield is reported as at least 75%. For YSLSSVVTV, the peptide exchange yield was 50 to 75%.

Source: patent publication US20170037110A1 (IMMATICS BIOTECHNOLOGIES, published 2017)
